From patent US20200048358A1
Numbering of substitutions follows the chain as printed.

B1: anti-OX40 antibody 1482/1483 (antibody, V domains shown)
VH: EVQLLESGGGLVQPGGSLRLSCAASGFTFSSYAMSWVRQAPGKGLEWVSYISYYSGYTYYADSVKGRFTISRDNSKNTLYLQMNSLRAEDTAVYYCARGYGYLDYWGQGTLVTVSS
VL: DIQMTQSPSSLSASVGDRVTITCRASQSISSYLNWYQQKPGKAPKLLIYAASSLQSGVPSRFSGSGSGTDFTLTISSLQPEDFATYYCQQYGSLLTFGQGTKLEIK
B2: anti-OX40 antibody 1514/1515 (antibody, V domains shown)
VH: EVQLLESGGGLVQPGGSLRLSCAASGFTFGYYYMSWVRQAPGKGLEWVSGISSYGSYTYYADSVKGRFTISRDNSKNTLYLQMNSLRAEDTAVYYCARSGYSNWANSFDYWGQGTLVTVSS
VL: DIQMTQSPSSLSASVGDRVTITCRASQSISSYLNWYQQKPGKAPKLLIYAASSLQSGVPSRFSGSGSGTDFTLTISSLQPEDFATYYCQQGDYTLFTFGQGTKLEIK
B3: anti-OX40 antibody 1170/1171 (antibody, V domains shown)
VH: EVQLLESGGGLVQPGGSLRLSCAASGFTFGGYYMSWVRQAPGKGLEWVSYIPGSGGSTYYADSVKGRFTISRDNSKNTLYLQMNSLRAEDTAVYYCARYDYYWMDYWGQGTLVTVSS
VL: DIQMTQSPSSLSASVGDRVTITCRASQSISSYLNWYQQKPGKAPKLLIYAASSLQSGVPSRFSGSGSGTDFTLTISSLQPEDFATYYCQQGHGSYPHTFGQGTKLEIK
B4: anti-OX40 antibody 1524/1525 (antibody, V domains shown)
VH: EVQLLESGGGLVQPGGSLRLSCAASGFTFGSYYMGWVRQAPGKGLEWVSSIGSYYGYTYYADSVKGRFTISRDNSKNTLYLQMNSLRAEDTAVYYCARHDYGALDYWGQGTLVTVSS
VL: B3 VL with G91Y, H92G, G93P, Y95G, P96L, H97F
B5: anti-OX40 antibody 1526/1527 (antibody, V domains shown)
VH: EVQLLESGGGLVQPGGSLRLSCAASGFTFSGYSMYWVRQAPGKGLEWVSGIGYSGYGTYYADSVKGRFTISRDNSKNTLYLQMNSLRAEDTAVYYCARYYFHDYAAYSLDYWGQGTLVTVSS
VL: B3 VL with G91Y, H92G, G93S, S94D, Y95S, P96L, H97L
B6: anti-OX40 antibody 1166/1167 (antibody, V domains shown)
VH: B3 VH with Y50A, P52S, Y102A, W103S
VL: B3 VL with G91Y, H92Y, G93W, S94Y, Y95G, P96L, H97S

What follows are binders tested against chimeric OX40 construct 1549: Human OX40 with mouse domains 1A and 4B and region non-annotated extracellular region (aa 30-65 and aa 127-214) (human; mouse) (UniProt P47741) (assay: flow cytometry, transfected 293-F cells).

In order of rising relative MFI compared to isotype control:
1. B5  8.5
2. B1  8.7
3. B2  10.6
4. B4  11.2
5. B6  11.3
6. B3  12.1
